Results published in patent publication US20100075326A1.
Like-named read-outs stand apart in the source and are kept apart here. One block for each substance: values may come before it.

Columns and labels:
[1] = target: LFA-1 I domain F265S, YS2H bait fused to Aga2 with C-terminal FLAG tag (yeast) (UniProt P20701); assay: predicted from YS2H (flow cytometry of Myc and FLAG tags, Langmuir equation)
[2] = target: high affinity (HA) LFA-1 I domain K287C/K294C, YS2H bait fused to Aga2 with C-terminal FLAG tag (yeast) (UniProt P20701); assay: as above
[3] = target: LFA-1 I domain L295P, YS2H bait fused to Aga2 with C-terminal FLAG tag (yeast) (UniProt P20701); assay: as above
[4] = target: LFA-1 I domain F265S, YS2H bait fused to Aga2 with C-terminal FLAG tag (yeast) (UniProt P20701); assay: YS2H as in the row 'Myc', but labelled without metal ions with 10 mM EDTA (row 'Myc+ EDTA'); Flag (bait) MFI 52±8
[5] = target: high affinity (HA) LFA-1 I domain K287C/K294C, YS2H bait fused to Aga2 with C-terminal FLAG tag (yeast) (UniProt P20701); assay: YS2H: I domain bait on the yeast surface (Aga2 fusion, Flag tag), secreted scFv prey with Myc tag; flow cytometry with anti-Myc antibody, mean ± standard error of three measurements; Flag (bait) MFI 85±7
[6] = target: wild-type LFA-1 I domain, YS2H bait fused to Aga2 with C-terminal FLAG tag (yeast) (UniProt P20701); assay: YS2H: I domain bait on the yeast surface (Aga2 fusion, Flag tag), secreted scFv prey with Myc tag; flow cytometry with anti-Myc antibody, mean ± standard error of three measurements; Flag (bait) MFI 79±1
[7] = target: LFA-1 I domain L295P, YS2H bait fused to Aga2 with C-terminal FLAG tag (yeast) (UniProt P20701); assay: YS2H: I domain mutant bait on the yeast surface, secreted scFv AL-57 prey with Myc tag; flow cytometry with anti-Myc antibody, 10 mM MgCl2, mean ± standard error of three measurements; Flag (bait) MFI 40±2
[8] = target: LFA-1 I domain L295P, YS2H bait fused to Aga2 with C-terminal FLAG tag (yeast) (UniProt P20701); assay: YS2H as in the row 'Myc', but labelled without metal ions with 10 mM EDTA (row 'Myc+ EDTA'); Flag (bait) MFI 40±2
[9] = target: LFA-1 I domain F265S, YS2H bait fused to Aga2 with C-terminal FLAG tag (yeast) (UniProt P20701); assay: YS2H: I domain mutant bait on the yeast surface, secreted scFv AL-57 prey with Myc tag; flow cytometry with anti-Myc antibody, 10 mM MgCl2, mean ± standard error of three measurements; Flag (bait) MFI 52±8
[10] = target: LFA-1 I domain F265S, YS2H bait fused to Aga2 with C-terminal FLAG tag (yeast) (UniProt P20701); assay: predicted from YS2H (flow cytometry of Myc and FLAG tags, Langmuir equation); remark: listed apart in the source
[11] = target: LFA-1 I domain L295P, soluble, refolded from E. coli (UniProt P20701); assay: SPR (Biacore), I domain injected over scFv AL-57 chip, 10 mM MgCl2
[12] = target: high affinity (HA) LFA-1 I domain K287C/K294C, soluble, refolded from E. coli (UniProt P20701); assay: as above
[13] = target: LFA-1 I domain F265S, soluble, refolded from E. coli (UniProt P20701); assay: as above
[14] = target: wild-type LFA-1 I domain, YS2H bait fused to Aga2 with C-terminal FLAG tag (yeast) (UniProt P20701); assay: YS2H: I domain bait on the yeast surface (Aga2 fusion, Flag tag), secreted scFv prey with Myc tag; flow cytometry, mean ± standard error of three measurements; paragraph 71 says goat polyclonal anti-murine antibody was the primary antibody for detecting TS1/22; Flag (bait) MFI 40±0.3
[15] = target: high affinity (HA) LFA-1 I domain K287C/K294C, YS2H bait fused to Aga2 with C-terminal FLAG tag (yeast) (UniProt P20701); assay: YS2H: I domain bait on the yeast surface (Aga2 fusion, Flag tag), secreted scFv prey with Myc tag; flow cytometry, mean ± standard error of three measurements; paragraph 71 says goat polyclonal anti-murine antibody was the primary antibody for detecting TS1/22; Flag (bait) MFI 44±2
[16] = target: the wild-type and HA I domain; assay: predicted from YS2H (flow cytometry of Myc and FLAG tags, Langmuir equation)

Kd [1]: 237 nM
Kd [2]: 151 nM
Kd [3]: 440 nM
MFI (anti-Myc, with EDTA) [4]: 15
MFI (anti-Myc) [5]: 80
MFI (anti-Myc) [6]: 12
MFI (anti-Myc) [7]: 13
MFI (anti-Myc, with EDTA) [8]: 10
MFI (anti-Myc) [9]: 32
Kd [10]: 148 to 237 nM
Substance: scFv AL-57, secreted YS2H prey with C-terminal Myc tag

Kd [11]: 243 nM
Kd [12]: 32.6 nM
Kd [13]: 15.7 nM
Substance: scFv AL-57, soluble, refolded from E. coli

MFI (row 'Myc') [14]: 38
MFI (row 'Myc') [15]: 40
Kd [16]: 148 to 237 nM
Substance: scFv TS1/22, secreted YS2H prey with C-terminal Myc tag
